This passage reports IC50 (µg/ml), pseudovirus results from patent US20230257726A1.

This assay has as its target SARS-CoV-2 spike protein on spike pseudotyped lentivirus particles or authentic SARS-CoV-2 (SARS-CoV-2) (UniProt P0DTC2). Description: cell-based or functional assay.

Consider Wild type ACE2(614)-Fc (Fc fusion), for which the IC50 (µg/ml), pseudovirus was 0.43 µg/mL.
